What was measured:
[1] = GES enzyme assay (conversion of [1-3H]-GDP, hexane-extractable product counted by scintillation); assay type: biochemical; conditions: GES purification from gland of basil “Sweet Dani” cultivar
Experimental: GES activity was assayed by incubating 5 μl of the enzyme sample in a final volume of 50 μl buffer containing 50 mM Hepes-KOH, pH 8.0, 1 mM DTE, 0.5 mM MnCI2, 20 mM MgCl2, 10% glycerol and 54 μM [1-3H]-GDP (specific activity 20 Ci/mol, American Radiolabeled Chemicals, St. Louis, Mo.). After incubation for 30 mm at […], 160 μl hexane was added to the tube, and vortexed briefly and centrifuged to separated the phases. The hexane layer was directly placed into a scintillation vial containing 2 ml of nonaqueous scintillation fluid (Econo-Safe, Research Products International, Mount Prospect Ill.). This extraction procedure was repeated twice and the total hexane phase was counted by Liquid Scintillation counter (LS-6500 model, Beckman Coulter, Fullerton, Calif.). Boiled enzyme extracts were used as controls.

[2] = Identification of enzymatic products of GES with GDP by SPME GC-MS; assay type: biochemical; conditions: SPME gas chromatogram of the reaction solution, peak identified by MS
Experimental: GES enzyme assays were also performed by adding 100 μl of enzyme solution with 900 μl assay solution containing 54 μM non-radioactive GDP (Echelon Research Laboratories, Salt Lake City, Utah) and the same buffer described above. The reactions were carried out in an 8 mL DuPont autosampler vial with a white solid-top polypropylene cap (Alltech, Deerfield, Ill.). After letting the reaction proceed for 2-4 hr at 32° C., the liberated compounds were collected with a solid-phase microextraction (SPME) device PDMS-100 with a polydimethylsiloxane fiber (Supelco, Bekkefonte, Pa.) by inserting the fiber into the tube and leaving it in for 20 mim at 42° C. After this incubation step, the solid-phase microextraction fiber was directly injected into the GC-MS.

- Total activity ([1]; activity of the fraction after the named purification step): 337.2 ptat
B1: Superose12: geraniol synthase purified from basil glands after Superose 12 size exclusion chromatography (protein, UniProt Q6USK1 64-567, looked up)
Geraniol synthase, …: QHMEESSSKRREYLLEETTRKLQRNDTESVEKLKLIDNIQQLGIGYYFEDAINAVLRSPFSTGEEDLFTAALRFRLLRHNGIEISPEIFLKFKDERGKFDESDTLGLLSLYEASNLGVAGEEILEEAMEFAEARLRRSLSEPAAPLHGEVAQALDVPRHLRMARLEARRFIEQYGKQSDHDGDLLELAILDYNQVQAQHQSELTEIIRWWKELGLVDKLSFGRDRPLECFLWTVGLLPEPKYSSVRIELAKAISILLVIDDIFDTYGEMDDLILFTDAIRRWDLEAMEGLPEYMKICYMALYNTTNEVCYKVLRDTGRIVLLNLKSTWIDMIEGFMEEAKWFNGGSAPKLEEYIENGVSTAGAYMAFAHIFFLIGEGVTHQNSQLFTQKPYPKVFSAAGRILRLWDDLGTAKEEQERGDLASCVQLFMKEKSLTEEEARSRILEEIKGLWRDLNGELVYNKNLPLSIIKVALNMARASQVVYKHDQDTYFSSVDNYVDALFFTQ
- Specific activity ([1]; activity per mg protein after the named purification step): 6244.2 pkat/mg
- Products of the reaction catalyzed by purified GES with GDP [2]: Only a single peak was observed, identified as geraniol
